Molecular target: T1, OgeuIscB ΔHNH (human gut metagenome (OgeuIscB), UniProt PDB:7XHT_4 1-198+=GGSG+296-496, internal_change)
T1 sequence: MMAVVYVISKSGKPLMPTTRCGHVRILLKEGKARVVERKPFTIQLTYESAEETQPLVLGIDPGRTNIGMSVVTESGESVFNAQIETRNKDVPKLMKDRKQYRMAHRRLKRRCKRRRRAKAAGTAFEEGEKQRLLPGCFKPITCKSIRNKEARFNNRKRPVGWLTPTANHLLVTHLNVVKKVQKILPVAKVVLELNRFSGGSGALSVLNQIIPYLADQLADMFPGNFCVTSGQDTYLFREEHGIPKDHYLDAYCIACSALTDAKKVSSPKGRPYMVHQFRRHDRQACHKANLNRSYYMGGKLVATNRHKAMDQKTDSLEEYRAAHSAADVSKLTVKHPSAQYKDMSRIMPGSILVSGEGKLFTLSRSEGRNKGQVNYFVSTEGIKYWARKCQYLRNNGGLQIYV
Assay: cryo-EM (2.6 Å); Mg2+ bound in RuvC site; Purification: 20 mM Tris-HCl pH 8.0, NaCl gradient 0.075-2 M (heparin), 10% glycerol, 5 mM MgCl2, 2 mM DTT; cryo-EM sample buffer not in the material
Conditions: protein: recombinant; strand 1 ωRNA, strand 2 TS, strand 3 NTS; NTS pairs with TS nt 1-14; ωRNA guide nt 1-27 complementary to TS nt 15-41 (17 bp resolved); TS 3' tail 8 nt

B1: ωRNA (233 nt) + partially double-stranded target DNA (TS 49 nt, NTS 14 nt) (mixed)
RNA: GGAAUUGUGAGCGGAUAACAAUUCCCCGGCUCUUCCAACUUUAUGGUUGCGACCGUAGGUUGAAAGAGCACAGGCUGAGACAUUCGUAAGGCCGAAAGACCGGACGCACCCUGGGAUUUCCCCAGUCCCCGGAACUGCAUAGCGGAUGCCAGUUGAUGGAGCAAUCUAUCAGAUAAGCCAGGGGGAACAAUCACCUCUCUGUAUCAGAGAGAGUUUUACAAAAGGAGGAACGG
DNA 1: GAATGGTTTTCTTCGGGGAATTGTTATCCGCTCACAATTCCTTAGAAAA
DNA 2: GAAGAAAACCATTC
Does B1 bind?
Result: binds
